From paper PMC3555993, “Structural and Functional Analysis of the DEAF-1 and BS69 MYND Domains” (PLoS ONE, 2013)

B1: human DEAF-1 MYND domain (residues 501–544) (domain or fragment)
chain: GAMEQSCVNCGREAMSECTGCHKVNYCSTFCQRKDWKDHQHICGQSA
notes: N-terminal insertion of three amino acids GAM; DEAF-1, human, MYND domain, residues 501-544; 15N- or 15N/13C-labelled for NMR; also called short construct; source: E. coli BL21(DE3), purified (Ni-NTA, TEV cleavage, second Ni column, Superdex 75); not shown: poly-histidine tag, N-terminal, cleaved; thioredoxin, N-terminal, cleaved

Columns and labels:
[1] = target: the molecule itself; assay: AUC; sedimentation velocity, concentration-dependent; continuous sedimentation distribution at 86 µM DEAF-1 MYND; fitted to a self-association model; dimer to monomers
[2] = target: B1; assay: NMR titration; 1 mM 15N-labeled DEAF-1 MYND titrated with unlabeled peptide (SMRT up to 9-fold, NCoR up to 5-fold molar excess); chemical shift perturbations fitted to a binding isotherm; fast exchange; settings: both partners purified

Row | Kd [2] [mM] | Binder | Kd [1] [mM] | stoichiometry N [1]
1 | – | B1 | 0.0005 ± 0.0001 | 2
2 | 3.08 ± 0.12 | RPPPPLIPSS (nuclear receptor corepressor (NCoR), residues 1031-1040; Unlabelled peptide; also called NCoR peptide) [NCoR corepressor peptide (residues 1031–1040 of NCoR)] | – | –
3 | 5.3 ± 0.54 | SNPPPLISSA (silencing mediator of retinoid and thyroid receptor (SMRT), residues 1111-1120; Unlabelled peptide; also called SMRT peptide) [SMRT corepressor peptide (residues 1111–1120 of SMRT)] | – | –
